Where no end group is shown, it is not given here.
Biological target: rabbit polyclonal anti-Syn2vE1a antibodies
Experiment: epitope peptide competition: antisera pre-absorbed with 3 mg/ml synthetic epitope peptide, then Western blot on Syn2vE1a lysate

CGIRRAPLYKRHPTGTA-NH2 [synthetic epitope peptide (C)…-amide]
percent of anti-Syn2vE1a signals blocked: > 98%

— US20090214555A1
